In US20230250191A1 (SHANGHAI JEMINCARE PHARMACEUTICAL, published 2023):
Where a chain is given by its changes, count along the chain named. One block for each binder: values may come before it.

Experiments:
human FcRn = target: T1, human FcRn (human, UniProt P55899 24-297; P61769 21-119); assay: BLI (Octet RED96e), pH 6.0, FcRn captured through biotin-conjugated anti-His antibody, antibody 31.3-1000 nM
T1 construct: Bought protein; also called hFcRn
Procedure: (§1) The affinity of the antibody to human FcRn (Acro, FCN-H52W7) and cynomolgus monkey FcRn (Acro, FCM-C52W9) was determined according to the method of Example 2 using Octet RED96e (Fortebio). Wherein, human FcRn and cynomolgus FcRn were diluted to 5 µg/mL with 1xPBS (10 mM Na2HPO4.12H2O, 2 mM KH2PO4, 137 mM NaCl, 2.7 mM KCl, pH 6.0), respectively, and biotin-conjugated THETM His-tagged mouse monoclonal antibody was diluted to 2 µg/mL; the antibody to be tested was diluted with 1x PBST (1xPBS, 0.02% Tween 20, pH6.0), and the antibody dilution concentration ranged from 1000 nM - 31.3 nM.

cynomolgus monkey FcRn = target: T2, cynomolgus monkey FcRn (cynomolgus monkey, UniProt Q8SPV9 24-297; Q8SPW0 21-119); assay: as above
T2 construct: Bought protein; also called Cynomolgus FcRn; cynomolgus FcRn
Procedure: as §1

[1] = target: T3, cynomolgus monkey IgE CH3-CH4 (cynomolgus monkey); assay: BLI (Octet), method of Example 2, biotinylated cynomolgus IgE CH3-CH4
T3 construct: domain: CH3-CH4; Custom protein; also called Biotin -cyno IgE CH3-CH4; Biotin-cyno IgE
Procedure: Detection of samples on machine (Octet Data Acquisition 11.1.0.11): First, samples were added to a 96-well plate (Greiner bio-one, 655209) with 200 µL/well according to the following table. The software parameters were then set, the plate temperature was set at 30° C., and the frequency of standard kinetic signals was collected at 5.0 Hz. Next, the CH1 sensor (Fortébio, 18-0039) with 1xPBST was pre-wet for 10 minutes, and then tested on the machine. Each cycle includes the following steps: 1) immersing in buffer for 60 s; 2) detecting whether the antigen non-specifically binds to the sensor; 3) regenerating with glycine solution at 10 mM pH 1.7; 4) immersing in buffer for 60 s; 5) immobilizating the antibody on the sensor for 30 s; 6) immersing the sensor in the buffer for 180 s; 7) Association of the antigen- antibody for 180 s; 8) dissociation of the antigen-antibody for 10 min; 9) regenerating the sensor.

T2 sequence (Q8SPV9 24-297 limits assumed, chain 1 of 2): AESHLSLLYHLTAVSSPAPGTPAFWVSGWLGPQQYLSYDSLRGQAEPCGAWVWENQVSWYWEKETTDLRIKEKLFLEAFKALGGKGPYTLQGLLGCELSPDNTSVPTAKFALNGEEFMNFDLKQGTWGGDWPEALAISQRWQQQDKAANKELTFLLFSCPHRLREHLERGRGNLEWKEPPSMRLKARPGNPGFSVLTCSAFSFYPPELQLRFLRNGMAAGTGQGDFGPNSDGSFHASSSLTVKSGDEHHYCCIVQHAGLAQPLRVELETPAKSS
T2 sequence (Q8SPW0 21-119 limits assumed, chain 2 of 2): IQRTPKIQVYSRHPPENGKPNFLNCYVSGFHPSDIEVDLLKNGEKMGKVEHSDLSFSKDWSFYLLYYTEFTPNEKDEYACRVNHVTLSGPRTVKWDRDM

B1: AB1904Am10 (antibody)
VL: DIQLTQSPSSLSASVGDRVTITCRASQSVGDEADSYMNWYQQKPGKAPKLLIYAASYLQSGVPSRFSGSGSGTDFTLTISSLQPEDFATYYCQQSHEDPYTFGQGTKLEIKRTVAAPSVFIFPPSDEQLKSGTASVVCLLNNFYPREAKVQWKVDNALQSGNSQESVTEQDSKDSTYSLSSTLTLSKADYEKHKVYACEVTHQGLSSPVTKSFNRGEC
VH: not shown
notes: IgG1 format
Kd (human FcRn): 98.7 nM
koff (human FcRn): 0.121 s⁻¹
kon (human FcRn): 1.22e+06 M⁻¹ s⁻¹
Kd (cynomolgus monkey FcRn): 91.4 nM
koff (cynomolgus monkey FcRn): 0.106 s⁻¹
kon (cynomolgus monkey FcRn): 1.16e+06 M⁻¹ s⁻¹

B3: AB1904Am2 (antibody, V domains shown)
VH: EVQLVESGGGLVQPGGSLRLSCAVSGYSIRSGYSWNWVRQAPGKGLEWVSVITYAGSTNYADSVKGRFTISRDDSKNTFYLQMNSLRAEDTAVYYCARGSHYFGHWHFAVWGQGTLVTVSS
VL: DIQLTQSPSSLSASVGDRVTITCRASQSVADEWDSYMNWYQQKPGKAPKLLIYAASYLQSGVPSRFSGSGSGTDFTLTISSLQPEDFATYYCQQSHEDPYTFGQGTKLEIK
notes: IgG1 format
Kd [1]: 0.11 nM
koff [1]: 0.000222 s⁻¹
kon [1]: 2.06e+06 M⁻¹ s⁻¹

B5: AB1904Am3 (antibody, V domains shown)
VH: B3 VH with R30T, S100T
VL: B3 VL with A30D, D31A, W33G
notes: IgG1 format
Kd [1]: 0.16 nM
koff [1]: 0.000272 s⁻¹
kon [1]: 1.7e+06 M⁻¹ s⁻¹

B6: AB1904Am5 (antibody, V domains shown)
VH: B3 VH with R30T
VL: B3 VL with A30D, W33Y
notes: IgG1 format
Kd [1]: 0.15 nM
koff [1]: 0.000267 s⁻¹
kon [1]: 1.77e+06 M⁻¹ s⁻¹

Further lines, results first:

Kd (human FcRn): 32.8 nM
koff (human FcRn): 0.0287 s⁻¹
kon (human FcRn): 875000 M⁻¹ s⁻¹
Kd (cynomolgus monkey FcRn): 31.5 nM
koff (cynomolgus monkey FcRn): 0.0291 s⁻¹
kon (cynomolgus monkey FcRn): 922000 M⁻¹ s⁻¹
B2: AB1904Am15 (antibody)
VL: B1 VL
VH: EVQLVESGGGLVQPGGSLRLSCAVSGYSITSGYSWNWVRQAPGKGLEWVSVITYAGSTNYADSVKGRFTISRDDSKNTFYLQMNSLRAEDTAVYYCARGTHYFGHWHFAVWGQGTLVTVSSASTKGPSVFPLAPSSKSTSGGTAALGCLVKDYFPEPVTVSWNSGALTSGVHTFPAVLQSSGLYSLSSVVTVPSSSLGTQTYICNVNHKPSNTKVDKKVEPKSCDKTHTCPPCPAPELLGGPSVFLFPPKPKDTLYITREPEVTCVVVDVSHEDPEVKFNWYVDGVEVHNAKTKPREEQYNSTYRVVSVLTVLHQDWLNGKEYKCKVSNKALPAPIEKTISKAKGQPREPQVYTLPPSREEMTKNQVSLTCLVKGFYPSDIAVEWESNGQPENNYKTTPPVLDSDGSFFLYSKLTVDKSRWQQGNVFSCSVMHEALHNHYTQKSLSLSPGK
notes: Same variable regions as AB1904Am10

Kd [1]: 0.17 nM
koff [1]: 0.000248 s⁻¹
kon [1]: 1.5e+06 M⁻¹ s⁻¹
B4: AB1904Am11 (antibody, V domains shown)
VH: B3 VH with R30T, S100T
VL: B3 VL with A30N, W33A
notes: IgG1 format

Kd [1]: 0.18 nM
koff [1]: 0.000308 s⁻¹
kon [1]: 1.74e+06 M⁻¹ s⁻¹
B7: AB1904Am6 (antibody, V domains shown)
VH: B3 VH with R30T, H101N
VL: B3 VL with A30D, D31S, W33G
notes: IgG1 format
